According to the DeepSol protein solubility set:

assay: soluble on expression in E. coli; label from the status in PepcDB or PDB records

Q: With “MAIEIKVPDIGADEVEITEILVKVGDKVEAEQSLITVEGDKASMEVPSPQAGIVKEIKVSVGDKTQTGALIMIFDSADGAADAAPAQAEEKKEAAPAAAPAAAAAKDVNVPDIGSDEVEVTEILVKVGDKVEAEQSLITVEGDKASMEVPAPFAGTVKEIKVNVGDKVSTGSLIMVFEVAGEAGAAAPAAKQEAAPAAAPAPAAGVKEVNVPDIGGDEVEVTEVMVKVGDKVAAEQSLITVEGDKASMEVPAPFAGVVKELKVNVGDKVKTGSLIMIFEVEGAAPAAAPAKQEAAAPAPAAKAEAPAAAPAAKAEGKSEFAENDAYVHATPLIRRLAREFGVNLAKVKGTGRKGRILREDVQAYVKEAIKRAEAAPAATGGGIPGMLPWPKVDFSKFGEIEEVELGRIQKISGANLSRNWVMIPHVTHFDKTDITELEAFRKQQNEEAAKRKLDVKITPVVFIMKAVAAALEQMPRFNSSLSEDGQRLTLKKYINIGVAVDTPNGLVVPVFKDVNKKGIIELSRELMTISKKARDGKLTAGEMQGGCFTISSIGGLGTTHFAPIVNAPEVAILGVSKSAMEPVWNGKEFVPRLMLPISLSFDHRVIDGADGARFITIINNTLSDIRRLVM” as the sequence, how does the “soluble on expression in E. coli” value read?
A: The value was “soluble”.

Q: With “MKRVGKQTWVFDEDIYIRAAATAVGPLEADGPLGGYFDIWHRDLYCGEETWELAERRLMSEAVARCLQKAGVSAHDVDLFLAGDLLNQNATSNYVARELPIPFLCLFGACSTSMQTLAAAAAFVAGGLADTALVATSSHNATAERQFRYPTELGVQKPKTATFTVTGAGAALVGRTPGRWRIRAATIGKVIDAGLTNPLDMGAAMAPAAADTIEQHFRDLGTSPSDYDLIVTGDLSRVGSVIVRELLAESGYDISDVYNDCGLMIYRPDQKVFAGGSGCACSAVVTYGYLFHELDRGTFHRLFVVATGALLSQTMVQQKQSIPAVAHGVVIEAAKLEHHHHHH” as the sequence, how does the “soluble on expression in E. coli” value read?
A: Its value is “not soluble”.

Q: For “MTDEVILANATLVLRGETVTGSLHIKGETIAGIDQGAHVPAGAVDCEGDFVSPGLVELHTDNLERHIQPRPKVDWPHAAAILAHDAELAGTGITTVFDAMRVGSIPSGAGRYLQYARNLSRELWQLREASALKISHFLHLRAEVCSETLVEELDEFAPEDRVGLVSLMDHTPGQRQFRDMTKLEAYMKGKHAMSDDTFLQHVSQLKGLRDRYGDRHEIETVKAARRLGSVLASHDDTTAEQVAVSAGHGIRLAEFPTTIEAAEACHAHGIKVIMGAPNLIRGGSHSGNVAAADLAERGLLDILSSDYVPSALLLSAVRLGALWGDMARGMATVTRTPAQAVGLDDRGEIAPGLRADLIRFRMSQDVPALQSVWSRGRRVA”, which “soluble on expression in E. coli” value is on record?
A: The value was “not soluble”.

Q: With “MGSDKIHHHHHHMTMVLDQVVPFGRSMDEYIKIFNLTDADLNKKIIGIGDGPASFNAEMTRQGKSVISVDPLYQFSGDEILQRFNEVLDNIINQVKATSNNWVWSYHKSPDDLRHNRVKVIREFLSDYENGKKSNRYIVDEFPKLKFKTQEFEIALCSHLLFLYSDHLDYDFHLNSIGEMLRIAKEIRIFPLITLMWKHSQHLDEIVKHYTSIGYKIDIENVEYELQPGGNKMLKITRDFYKNHNL” as the sequence, how does the “soluble on expression in E. coli” value read?
A: Its value is “not soluble”.

Q: Which “soluble on expression in E. coli” value does the source give for “MGSDKIHHHHHHMLTEQPNWLMQRAQLTPERIALIYEDQTVTFAELFAASKRMAEQLAAHSVRKGDTAAILLQNRAEMVYAVHACFLLGVKAVLLNTKLSTHERLFQLEDSGSGFLLTDSSFEKKEYEHIVQTIDVDELMKEAAEEIEIEAYMQMDATATLMYTSGTTGKPKGVQQTFGNHYFSAVSSALNLGITEQDRWLIALPLFHISGLSALFKSVIYGMTVVLHQRFSVSDVLHSINRHEVTMISAVQTMLASLLEETNRCPESIRCILLGGGPAPLPLLEECREKGFPVFQSYGMTETCSQIVTLSPEFSMEKLGSAGKPLFSCEIKIERDGQVCEPYEHGEIMVKGPNVMKSYFNRESANEASFQNGWLKTGDLGYLDNEGFLYVLDRRSDLIISGGENIYPAEVESVLLSHPAVAEAGVSGAEDKKWGKVPHAYLVLHKPVSAGELTDYCKERLAKYKIPAKFFVLDRLPRNASNKLLRNQLKDARKGELL” here?
A: Its value is “not soluble”.

Q: With “SEFQSTVVATVDCQKQVRSWRLLRSFIQLLIPTCNCTLVQELEQDNTNLRGKKLYNDIKSRTSSFRSSSSLSSSTVTGTIFGYRKGKINFCIQTPRKSTNLDLLLELAVPTTVLAREMREGALRIVLERNNEKQDDDSFLSKPFWNMYCNGKRVGYARKRSPSQDDMTALTALSKVVVGAGVVTGKELGRFDDELMYLRASFRRVNGSKESESFHLIDPAGNIGQELSIFIVPSSV” as the sequence, how does the “soluble on expression in E. coli” value read?
A: Its value is “soluble”.

Q: Which “soluble on expression in E. coli” value does the source give for “MPSTSMIEDRSEIERRRFEYLDHPADIQLHSWGSTMEEAFEACLVSMFGYMTDLAKVDEMYEFYWKASGDSLDGLLFQFLDEALNSFHAEPCFVAKRVEILRFDKKKFEIEFRGWGESFDTSKHETEADIKSPTYSNMQINEKPERCDIYVIVDI” here?
A: The value was “not soluble”.

Q: With “MAHHHHHHMKAGKSGHRIYVGNIPGSMSKQEIIKAFEEFGKITEIDIKYNRNTNGTNYAFIEYESYKSAEKTIENKNGQKLKGYMLKVEYSIDKKNKEGGDLIALGGREAVSKGLLTNVRLPKNRSHYRVVVKNFPRKKIKLDGIKTFLMKAGKVIYTQLEDEITIAEYDCREGMLRAVNTLDRTMFNSTRKVYVRVLKDLPYDDSDADDSAQGCR” as the sequence, how does the “soluble on expression in E. coli” value read?
A: Its value is “not soluble”.

Q: With “GMKVLPVKQYLIMENYNPDTIFNGIVKINSNEKTFDDEILAQIGGALHDIDESWELLLSFANTIRSNWEIKTPAYDIVRLIVKKLPYSSDIKDYIEEGLGNKNITLTMLTVRILVNCFNNENWGVKLLESNQVYKSIFETIDTEFSQASAKQSQNLAIAVSTLIFNYSALVTKGNSDLELLPIVADAINTKYGPLEEYQECEEAAYRLTVAYGNLATVEPTLRQFANSVTWLANIKRSYGNVPRFKDIFDDLS” as the sequence, how does the “soluble on expression in E. coli” value read?
A: Its value is “soluble”.

Q: Which “soluble on expression in E. coli” value does the source give for “MLKMKNNGGGCLAYISDCSVYLPVWKLKRDEISKETGMPSMGGERAVAHWDEDSITMAVEAARKFDGAFDAVIFASSSPPFRIKQCASFIASALDLPDSTFTMDITDTMRAATDALITANEFVDSGRFSRVLVVAGDKIPTKPGTLYEQLYGDAAAAVVVEKEGGAKILGYSTSTKPLPGSWMLADDDTVRDYDMRVDARYGYAASVQKAAMPLFAKLGLSPADIDRIVASAPDPKSYQGLLKAVGARPEEFYFDSVGIAGSAHPLLLLATQLEREGRILLGGYGEGADVIAVEIEQAMDSNMGRMLESRKEISYGDYLFNRGFVGVRDAPDRPSLTKFWRDEKSIIRFYGMKCKSCGTVSYPISRCCIECGAKDNYEEVRLGERGKIYTFTIDYLVMPGNYAGDGVHPHFIAVVDLDGGGRVLFELTDTLRDFSGVECDAEVERTFRLLFEKNRFRYYGWKARLPRLEHHHHHH” here?
A: The value was “soluble”.

Q: For “MAPLVAVVSSPRARLFACFLRLGTQQAGPLQLHTGACCTAKNHYEVLVLGGGAGGITMATRMKRRVGAENVAIVEPSERHFYQPIWTLVGAGAKELSLSVRSTLSVIPSGVQWIQDRVAELNPDENCIRTDSGKEISYRYLIIALGIQLDYEKIKGLPEGFAYPKIGSNYSVKTVEKTWKALQDFKEGNALFTFPNTPVKCAGAPQKIMYLSEAYFRKTGKRPKANIIFNTALGTIFGVKKYADALQEIIRERDVSVNYKHNLIEVRPDKQEAVFEILDKPGETHVIPYEMLHVTPPMSAPDVLKRSPVADSAGWVDVDKETLQHKKYPNVFGIGDCTNLPTSKTAAAVAAQSGILDRTMCLIMKNQRPIKKYDGYTSCPLVTGYNRVILAEFDYTAQPLETFPFDQSKERITMYLMKADMMPFLYWNMMLRGYWGGPAFLRKLFHLGMN”, which “soluble on expression in E. coli” value is on record?
A: Its value is “not soluble”.

Q: With “MLDTLLINIGQLLTMDQEDGLLRREAMNTLPVIENGVVGIENGVITFVGTAEEAKGLQAKEVIDSGGKMVSPGLVDPHTHLVFGGSRENEIALKLQGVPYLEILEQGGGILSTVNATKQASKEELVQKAKFHLDRMLSFGVTTVEAKSGYGLDDETEWKQLEATAQLQKEHPIDLVSTFLGAHAVPKEYKGRSKEFLQWMLDLLPEMKEKQLVEFVDIFCETGVFSVEESKEFLLKAKELGFDVKIHADEIDPLGGAEAAAEIGAASADHLVGASDKGIEMLANSNTVATLLPGTTFYLNKESFARGRKMIDEGVAVALATDFNPGSCPTENIQLIMSIAMLKLKMTPEEVWNAVTVNSSYAINRGDVAGKIRVGRKADLVLWDAYNYAYVPYHYGVSHVNTVWKNGNIAYTRGEQSWSTATI” as the sequence, how does the “soluble on expression in E. coli” value read?
A: Its value is “not soluble”.
